Data from patent US20240197828A1, “Chimeric molecule to treat sepsis and other inflammatory conditions” (THE FEINSTEIN INSTITUTES FOR MEDICAL RESEARCH, priority 2022, published 2024).

Assays:
[1] = system: murine peritoneal cavity (PerC) macrophages; assay: eCIRP-induced cytokine release in peritoneal cavity macrophages; assay type: cell-based, mouse; settings: WT PerC macrophages, eCIRP treatment
Experimental: Murine peritoneal cavity (PerC) macrophages were isolated from adult, WT mice and MFG-E8“ ” mice. Briefly, mice were euthanized using CO2 asphyxiation. Peritoneal fluid and cells were isolated using peritoneal lavage by washing ice-cold Ca^+2 and Mg^+2 free Hank's Balanced Salt Solution (HBSS) with 2% fetal bovine serum (FBS, Solon, Ohio). Total PerC macrophages were isolated by centrifugation at 400 g for 10 minutes at 4° C. After centrifugation, the cell pellet was suspended in culture media containing RPMI 1640 (Invitrogen) supplemented with 25 mM HEPES, 2 mM glutamine, 10% FBS, penicillin (100 IU/mL) and streptomycin (100 IU/mL). PerC macrophages were allowed to adhere in 6-well plates for 4 hours in humidified incubator at 37 °C. […] Adhered PerC macrophages were then mechanically detached from the plate and counted. […]
(§1) The mouse macrophage cell culture supernatants were analyzed for cytokine levels using ELISA kits (BD Biosciences, CA). […] TNF-α and IL-6 levels were measured in cell supernatants by ELISA in accordance with respective manufacturers' instructions (BD Biosciences, CA). Blood was collected, centrifuged at 4,000 RPM for 10 minutes, and sera was separated and analyzed for cytokine levels using ELISA kits (BD Biosciences, CA). TNF-α and IL-6 levels in the serum were measured by ELISA in accordance with respective manufacturers' instructions.

[2] = system: WT mice; assay: Sterile eCIRP-induced inflammation by rmCIRP injection in mice; assay type: in vivo, mouse; settings: 4 hours, vs eCIRP alone
Experimental: FIG. 5A-5B. eCIRP-induced inflammation is attenuated by MOP3. WT mice were treated according to respective groups: PBS (volume equivalent), rmCIRP (5 mg/kg), or MOP3 (10 μg/kg) co-incubated with rmCIRP (5 mg/kg) for 30 mins prior to r.o. injection. After 4 hours, serum was measured for IL-6 (A) and TNFα (B) levels by ELISA. All experiments were performed 3 times, and all data were used for analysis (N=7-10). Data are expressed as mean±SEM and compared by one-way ANOVA and SNK test. *p<0.05 vs. PBS, #p<0.05 vs. eCIRP.
Adult (8-12 weeks) male, C57BL/6 wild-type (WT) mice (20-30 g) were purchased from Charles River Laboratories. MFG-E8 knockout mice (MFG-E8^−/−) were originally obtained from Dr. Shigekazu Nagata, Osaka University of Japan, and bred following our Institutional Animal Care and Use Committee (IACUC) policies. Age-matched, healthy mice were used in all experiments. Animals were randomly assigned to sham, vehicle, or treatment groups. Concerted effort was made to ensure that a limited number of animals were used in each experiment. […] For the design of in vivo models, sample size calculation was driven by variability, effect size, significance level and power as determined through performance of early feasibility and optimization pilot studies. […]
as §1
Serum levels of aspartate transaminase (AST), alanine transaminase (ALT), and lactate dehydrogenase (LDH) were determined using calorimetric enzymatic assays (Pointe Scientific, Canton, MI) according to the manufacturer's instructions.

[3] = rmCIRP 5 mg/kg co-incubated 30 min with test substance, r.o. injection

B1: milk fat globule-epidermal growth factor—factor VIII (protein, listed as Mus musculus)
chain: MQVSRVLAALCGMLLCASGLFAASGDFCDSSLCLNGGTCLTGQDNDIYCLCPEGFTGLVCNETERGPCSPNPCYNDAKCLVTLDTQRGDIFTEYICQCPVGYSGIHCETETNYYNLDGEYMFTTAVPNTAVPTPAPTPDLSNNLASRCSTQLGMEGGAIADSQISASSVYMGFMGLQRWGPELARLYRTGIVNAWTASNYDSKPWIQVNLLRKMRVSGVMTQGASRAGRAEYLKTFKVAYSLDGRKFEFIQDESGGDKEFLGNLDNNSLKVNMFNPTLEAQYIKLYPVSCHRGCTLRFELLGCELHGCSEPLGLKNNTIPDSQMSASSSYKTWNLRAFGWYPHLGRLDNQGKINAWTAQSNSAKEWLQVDLGTQRQVTGIITQGARDFGHIQYVASYKVAHSDDGVQWTVYEEQGSSKVFQGNLDNNSHKKNIFEKPFMARYVRVLPVSWHNRITLRLELLGC
- IL-6 levels in cell supernatants [1]: reduced levels
- TNFα levels in cell supernatants [1]: reduced levels
- serum IL-6 levels [2, 3]: significantly reduced
- serum TNFα levels [2, 3]: significantly reduced
- LDH levels (tissue injury) ([2]; rmCIRP 5 mg/kg with rmMFG-E8 40 μg/kg): significantly reduced
